Reference: PMC8882475

Target: FcRn (UniProt P55899)
Experiment: BLI

SI–F019, huACE2 (18–615) - IgG1 Fc null (from UniProt Q9BYF1-1 18-615) (Fc fusion)
Kd: 37.6 nM
